In patent publication US20200071424A1 (SHIONOGI, published 2020):
Where a chain is given by its changes, count along the chain named. Like-named read-outs stand apart in the source and are kept apart here. Values belong to the binder of their own block, whether it stands above or below them.

Tests used:
baboon EL [1] = biological target: baboon EL (baboon); test: cell-based or functional assay
cynomolgus monkey EL [2] = biological target: cynomolgus monkey EL (cynomolgus monkey); test: cell-based or functional assay
[3] = biological target: human-mouse chimeric EL (construct not specified); test: cell-based or functional assay
rabbit EL = rabbit EL (rabbit); test: cell-based or functional assay
cynomolgus monkey EL [4] = biological target: T1, cynomolgus monkey EL (cynomolgus monkey); test: Biacore; EL captured by anti-C2-tag Ab; bivalent fit
T1 construct: Heparin extract; also called cynomolgus EL; Cynomolgus EL
Protocol: (§1) The binding affinities of anti-EL antibodies were measured using Biacore. […] Then, anti-EL antibodies were added and the binding affinities were calculated by bivalent fitting of BIAevaluation software.

[5] = biological target: T2, human [1-157]-mouse chimeric EL (human; mouse, UniProt Q9WVG5 158-500); test: ELISA: antibody captured on anti-mouse IgG-Fc plate, EL heparin extract added, detection with biotin anti-C2-tag antibody and HRP-streptavidin, A450
T2 construct: Heparin extract, detected by an anti-C2-tag antibody
T2 sequence: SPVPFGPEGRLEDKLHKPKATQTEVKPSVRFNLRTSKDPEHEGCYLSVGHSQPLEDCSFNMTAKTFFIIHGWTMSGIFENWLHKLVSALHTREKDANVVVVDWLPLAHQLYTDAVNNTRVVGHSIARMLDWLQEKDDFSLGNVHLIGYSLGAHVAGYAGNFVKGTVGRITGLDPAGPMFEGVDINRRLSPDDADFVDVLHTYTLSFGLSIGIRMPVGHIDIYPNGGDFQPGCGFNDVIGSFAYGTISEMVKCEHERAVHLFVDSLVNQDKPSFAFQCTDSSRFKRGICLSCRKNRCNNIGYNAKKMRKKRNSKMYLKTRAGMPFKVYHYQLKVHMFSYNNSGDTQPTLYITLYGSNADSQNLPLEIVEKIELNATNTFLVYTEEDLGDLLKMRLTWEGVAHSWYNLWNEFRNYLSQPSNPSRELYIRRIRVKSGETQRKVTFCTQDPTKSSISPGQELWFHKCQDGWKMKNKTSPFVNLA
Protocol: (§2) Assay buffer containing 15 μl of anti-EL antibody was added to anti-mouse IgG-Fc antibody-immobilized microtiter plate, and incubated for 2 hr. […] After washing the wells three times with 90 μL of washing buffer, 15 μl of assay buffer containing biotin-labeled anti-C2-tag antibody and HRP-labeled Streptavidin were added to the wells and incubated at room temperature for 1 hr. After washing the wells three times with 90 μL of washing buffer, 15 μL of TMB+—Substrate—Chromogen (DAKO) was added and incubated at room temperature for 30 min and then 15 μL of 0.05 M H2SO₄ was added and absorbance at 450 nm was measured (FIG. 3A to 3K).

cynomolgus monkey EL [6] = biological target: T1, cynomolgus monkey EL; test: as above
Protocol: as §2

[7] = biological target: T3, human [1-305]-mouse chimeric EL (human; mouse, UniProt Q9WVG5 306-500); test: as above
T3 construct: Heparin extract, captured or detected by an anti-C2-tag antibody; also called human-mouse chimeric EL
T3 sequence: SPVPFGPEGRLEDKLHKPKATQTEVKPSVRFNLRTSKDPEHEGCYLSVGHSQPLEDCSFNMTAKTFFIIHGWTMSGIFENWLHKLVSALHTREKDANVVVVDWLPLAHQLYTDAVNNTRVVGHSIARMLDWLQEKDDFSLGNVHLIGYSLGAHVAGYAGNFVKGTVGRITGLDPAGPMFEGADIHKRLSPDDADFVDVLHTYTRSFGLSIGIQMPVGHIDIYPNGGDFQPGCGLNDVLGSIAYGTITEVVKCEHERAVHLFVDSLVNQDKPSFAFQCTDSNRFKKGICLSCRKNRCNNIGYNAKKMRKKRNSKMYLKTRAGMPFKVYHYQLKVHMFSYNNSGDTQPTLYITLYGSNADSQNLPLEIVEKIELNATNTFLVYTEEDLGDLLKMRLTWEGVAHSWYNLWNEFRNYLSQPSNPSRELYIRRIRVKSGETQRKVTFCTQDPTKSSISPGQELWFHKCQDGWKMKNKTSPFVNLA
Protocol: as §2

mouse EL [8] = biological target: T4, mouse EL (mouse, UniProt Q9WVG5 21-500); test: as above
T4 construct: Heparin extract
T4 sequence (looked up): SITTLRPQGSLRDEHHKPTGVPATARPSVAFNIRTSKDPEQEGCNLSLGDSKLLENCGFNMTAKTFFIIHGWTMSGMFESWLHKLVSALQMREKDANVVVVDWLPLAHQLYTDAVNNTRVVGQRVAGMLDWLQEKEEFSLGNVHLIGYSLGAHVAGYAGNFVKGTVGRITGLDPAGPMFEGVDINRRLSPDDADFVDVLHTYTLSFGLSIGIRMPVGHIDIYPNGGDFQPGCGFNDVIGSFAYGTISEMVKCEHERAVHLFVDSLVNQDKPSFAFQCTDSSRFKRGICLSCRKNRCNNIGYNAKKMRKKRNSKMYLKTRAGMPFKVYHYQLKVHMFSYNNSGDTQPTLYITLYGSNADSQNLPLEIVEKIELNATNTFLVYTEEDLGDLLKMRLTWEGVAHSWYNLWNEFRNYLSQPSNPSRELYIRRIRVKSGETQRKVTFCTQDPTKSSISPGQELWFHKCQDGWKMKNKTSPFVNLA
Protocol: as §2

baboon EL [9] = biological target: T5, baboon EL (baboon); test: Biacore; EL captured by anti-C2-tag Ab; bivalent fit
T5 construct: Heparin extract
Protocol: as §1

[10] = biological target: T3, human [1-305]-mouse chimeric EL; test: as above
Protocol: as §1

baboon EL [11] = biological target: T5, baboon EL; test: ELISA: antibody captured on anti-mouse IgG-Fc plate, EL heparin extract added, detection with biotin anti-C2-tag antibody and HRP-streptavidin, A450
Protocol: as §2

[12] = biological target: T6, human [202-500]-mouse chimeric EL (mouse; human, UniProt Q9WVG5 21-201); test: as above
T6 construct: Heparin extract, detected by an anti-C2-tag antibody
T6 sequence: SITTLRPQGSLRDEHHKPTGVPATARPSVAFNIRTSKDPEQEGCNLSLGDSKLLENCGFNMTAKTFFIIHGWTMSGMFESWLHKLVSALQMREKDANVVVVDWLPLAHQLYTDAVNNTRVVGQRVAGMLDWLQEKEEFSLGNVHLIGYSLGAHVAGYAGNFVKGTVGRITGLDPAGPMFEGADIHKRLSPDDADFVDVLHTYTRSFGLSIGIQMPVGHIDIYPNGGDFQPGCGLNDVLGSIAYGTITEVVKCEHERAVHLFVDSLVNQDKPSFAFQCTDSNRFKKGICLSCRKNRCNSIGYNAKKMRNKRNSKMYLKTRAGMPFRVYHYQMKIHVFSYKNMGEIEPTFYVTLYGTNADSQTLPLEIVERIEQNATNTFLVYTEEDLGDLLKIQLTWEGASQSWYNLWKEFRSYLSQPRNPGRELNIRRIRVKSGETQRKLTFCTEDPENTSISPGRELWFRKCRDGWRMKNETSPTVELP
Protocol: as §2

cynomolgus monkey EL [13] = biological target: T1, cynomolgus monkey EL; test: cell-based or functional assay; remark: listed apart in the source
[14] = biological target: T3, human [1-305]-mouse chimeric EL; test: cell-based or functional assay
baboon EL [15] = biological target: T5, baboon EL; test: cell-based or functional assay; remark: listed apart in the source
mouse EL [16] = biological target: T4, mouse EL; test: cell-based or functional assay
baboon EL [17] = biological target: T5, baboon EL; test: Biacore; EL captured by anti-C2-tag Ab; bivalent fit; remark: listed apart in the source
Protocol: (§3) The binding affinities of anti-EL antibodies were measured using Biacore. […] Then, anti-EL humanized antibodies were added and the binding affinities were calculated by bivalent fitting of BIAevaluation software.

mouse EL [18] = biological target: T4, mouse EL; test: as above
Protocol: as §3

Neutralizing activity IC50 (baboon EL [1]): 2 nM
Neutralizing activity IC50 (cynomolgus monkey EL [2]): 1.7 nM
Neutralizing activity IC50 [3]: 2.4 nM
Neutralizing activity IC50 (rabbit EL): 5.7 nM
Kd (cynomolgus monkey EL [4]): 3.3 nM
koff (cynomolgus monkey EL [4]): 0.00018 s⁻¹
kon (cynomolgus monkey EL [4]): 55000 M⁻¹ s⁻¹
binding result [5]: no binding (tested: about 330 ng/mL)
EC50 (read off the curve) (cynomolgus monkey EL [6]): ~30 ng/mL
EC50 (read off the curve) [7]: ~6 ng/mL
binding result (mouse EL [8]): no binding (tested: about 330 ng/mL)
B1: 19E7 (antibody, mouse IgG2a, V domains shown)
VH: QVQLQQPGSVLVRPGASVKLSCKASGYTFTTYWMHWVKQRPGQGLEWIGEIHPYSGNNNNNEKFKGKATLTVDTSSSTAYVDLSRLTSEDSAVYYCARYDSNYVFAYWGQGTLVTVSA
VL: QIVLTQSPAIMSASPGEGVTITCSASSSVSYMHWFQQKPGTSPKLWIYSTSNLASGVPARFSGSGSGTSYSLTISRMEAEDAATYYCQQRDSYLTFGSGTKLEVK
notes: mouse IgG2a from hybridoma; also called 19E1(19E7)

Neutralizing activity IC50 (baboon EL [1]): 3.3 nM
Neutralizing activity IC50 (cynomolgus monkey EL [2]): 2.4 nM
Neutralizing activity IC50 [3]: 1.4 nM
Neutralizing activity IC50 (rabbit EL): 5.9 nM
Kd (baboon EL [9]): 5.8 nM
koff (baboon EL [9]): 0.00085 s⁻¹
kon (baboon EL [9]): 150000 M⁻¹ s⁻¹
Kd (cynomolgus monkey EL [4]): 5.9 nM
koff (cynomolgus monkey EL [4]): 0.00069 s⁻¹
kon (cynomolgus monkey EL [4]): 120000 M⁻¹ s⁻¹
Kd [10]: 5.4 nM
koff [10]: 0.00023 s⁻¹
kon [10]: 42000 M⁻¹ s⁻¹
EC50 (read off the curve) (baboon EL [11]): ~20 ng/mL
EC50 (read off the curve) (cynomolgus monkey EL [6]): ~10 ng/mL
EC50 (read off the curve) [7]: ~7 ng/mL
EC50 (read off the curve) [12]: ~20 ng/mL
B2: 14E1 (antibody, mouse IgG1, V domains shown)
VH: QVQLQQSGAELVKPGASVRLSCKASGYTFTKYTIHWVKQRSGQGLEWIGWFYPGSDSIKYNEKFKDKATLTADKSSRTVYMELSRLTSEDSAVYFCARHEEYTNSLAYWGQGTLVTVSA
VL: DIQMTQTTSSLSASLGDRVTISCRASQDISNYLNWYQQQPDGTVKLLIYYTSRLHSGVPSRFSGSGSGTDYSLTISNLEQEDIATYFCQQGYTLPWTFGGGTNLEIK
notes: mouse IgG1 from hybridoma

Neutralizing activity IC50 (baboon EL [1]): 3 nM
Neutralizing activity IC50 (cynomolgus monkey EL [2]): 1.9 nM
Neutralizing activity IC50 [3]: 1.3 nM
Neutralizing activity IC50 (rabbit EL): 6.3 nM
Neutralizing activity IC50 (cynomolgus monkey EL [13]): 1.8 nM
Neutralizing activity IC50 [14]: 1.3 nM
Kd (baboon EL [9]): 3.2 nM
koff (baboon EL [9]): 9.8e-05 s⁻¹
kon (baboon EL [9]): 31000 M⁻¹ s⁻¹
Kd (cynomolgus monkey EL [4]): 2.1 nM
koff (cynomolgus monkey EL [4]): 8.9e-05 s⁻¹
kon (cynomolgus monkey EL [4]): 42000 M⁻¹ s⁻¹
Kd [10]: 3.7 nM
koff [10]: 0.00019 s⁻¹
kon [10]: 51000 M⁻¹ s⁻¹
EC50 (read off the curve) (baboon EL [11]): ~5 ng/mL
EC50 (read off the curve) (cynomolgus monkey EL [6]): ~4 ng/mL
EC50 (read off the curve) [7]: ~3 ng/mL
binding result (mouse EL [8]): no binding (tested: about 330 ng/mL)
EC50 (read off the curve) [12]: ~4 ng/mL
B3: 16B3 (antibody, mouse IgG2a, V domains shown)
VH: DVKLVESGGGLVQPGGSLKLSCTASGFTFSGYTMSWVRQTPEKRLELVAEISFARDRAFYPDTVKGRFTISRDNAKNTLYLQMSSLKSEDTAMYYCTRLGGRNHDYWYFDVWGTGTTVTVSS
VL: DIVLTQSPTSLAVSPGQRATISCRASESVEYYGTSLMQWYQQKPGQRPQLLIYAASNVESGVPARFSGSGSGTDFSLNIHPVEEDDIAVYFCQQSWKVPFTFGSGTKLEIK
notes: mouse IgG2a from hybridoma; also called 16B3 (mouse mAb)

Neutralizing activity IC50 (baboon EL [1]): 2.1 nM
Neutralizing activity IC50 (cynomolgus monkey EL [2]): 2.5 nM
Neutralizing activity IC50 [3]: 1.1 nM
Neutralizing activity IC50 (rabbit EL): > 40 nM
Kd (baboon EL [9]): 4.7 nM
koff (baboon EL [9]): 0.00025 s⁻¹
kon (baboon EL [9]): 53000 M⁻¹ s⁻¹
Kd [10]: 1.1 nM
koff [10]: 0.0001 s⁻¹
kon [10]: 95000 M⁻¹ s⁻¹
EC50 (read off the curve) (cynomolgus monkey EL [6]): ~6 ng/mL
EC50 (read off the curve) [7]: ~6 ng/mL
EC50 (read off the curve) [12]: ~8 ng/mL
B4: 16E7 (antibody, mouse IgG1, V domains shown)
VH: B3 VH with D1E, T23A, G31S, A54T, D56S, T97A, R102N, H104Y
VL: B3 VL with P15L, Q49K, V89M
notes: mouse IgG1 from hybridoma

Neutralizing activity IC50 (baboon EL [15]): 2.6 nM
Neutralizing activity IC50 (mouse EL [16]): 3.1 nM
Kd (baboon EL [17]): 0.57 nM
koff (baboon EL [17]): 0.00074 s⁻¹
kon (baboon EL [17]): 1.3e+06 M⁻¹ s⁻¹
Kd (mouse EL [18]): 0.16 nM
koff (mouse EL [18]): 0.00019 s⁻¹
kon (mouse EL [18]): 1.2e+06 M⁻¹ s⁻¹
B5: h16F6-S1 (antibody, V domains shown)
VH: QVQLVQSGAEVKKPGASVKVSCKASGYTFTTYWIAWVRQAPGQGLEWMGEILPGSAKTKYNKKFKGRVTMTRDTSTSTVYMELSSLRSEDTAVYYCAVYDYGADYWGQGTTVTVSS
VL: DIQMTQSPSSLSASVGDRVTITCKASQDVYTAVAWYQQKPGKSPKLLIYSASYRFTGVPSRFSGSGSGTDFTLTISSLQPEDFATYYCQQHYSIPRTFGGGTKVEIK
notes: humanized
